# Measurements: the RNAGym collection of RNA variant scans (doi:10.1073/pnas.2313332121)
# This sample holds only a part of the variants without activity.
# B1: TPR 5TU (parent)
# chain: GGAUCUUCUCGAUCUAACAAAAAAGACAAAUCUGCCACAAAGCUUGAGAGCAUCUUCGGAUGCAGAGGCGGCAGCCUUCGGUGGCGCGAUAGCGCCAACGUUCUCAACUAUGACACGCAAAACGCGUGCUCCGUUGAAUGGAGUUUAUCAUG
# Variants of: B1
# Assay: polymerase ribozyme fitness, log enrichment relative to wild type (log ratio); higher = more active; in vitro selection for triplet polymerase activity
# In short: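 Mutant libraries of both subunits of a heterodimeric triplet polymerase ribozyme were PCR-built, transcribed, and selected once in triplicate, with frozen incubation at −7 °C and capture of gel-excised extended constructs on streptavidin beads before RT-PCR. Illumina sequencing of input and output libraries was filtered to genotypes with ≥10 input reads and ≥1 read per output. Fitness is the logarithm of genotype enrichment over wild-type enrichment, using inverse-variance-weighted replicate averages. The logarithm is base 2.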
row,Variant,polymerase ribozyme fitness (log ratio)
1,A40G C93U C99U,-4.16
2,A41C C125G,-0.815
3,A40U C95U C129A U134C,-3.65
4,A39U A113C,-4.11
5,C38U U134G,-2.53
6,A39U U53A U56C A60C U61A G86U A89G,-4.17
7,A40C A41C A107U C108G G117C,≤ -4.2
8,A40C U90C,-4.09
9,A39G A47G G83A A142G,≤ -4.2
10,C38U U45A U55C U101G,≤ -4.2
11,A39G C87A C108U U135C,≤ -4.2
12,C38U A41C C132U,-1.49
13,A39U C103G,-4.14
14,A40U U55C U78G U151A,≤ -4.2
15,A39U A97U A119C,-3.36
16,C38U U61G C85A G94C C123A,-1.29
17,A40U C76U,-0.102
18,C38U G62C G94U,-3.3
19,A39C U44C C93U C108G A121C U139G,≤ -4.2
20,C38U A73U C87U C96A A122G U145A,-2.54
21,C38U C93U,-1.06

row,Variant,polymerase ribozyme fitness (log ratio)
1,A40U C79G G88U A107G C149A,≤ -4.2
2,A40U C75U C95U A98U G140A,-3.39
3,A39G A52U U56A C75U U78G U104A U144C,≤ -4.2
4,A40U A60G A66U A73G A91G C99G,≤ -4.2
5,A40U C95U,-1.07
6,A39G C85U U101C,-2.58
7,A40C A49G U55A G80A C85U G140C,≤ -4.2
8,C38U C57A C87A,≤ -4.2
9,A41C A49C C75A C95A,≤ -4.2
10,A40G C54G G126A,-3.46
11,A39G A47C,-1.49
12,A40C G50U C69G C116U,-3.24
13,C38G G92C C95U,-1.62
14,A40C,0.603
15,A40G,-1.51
16,A40U,0.097
17,A39C G68A A89G G128U A138G,≤ -4.2
18,A39C C76G A137C,≤ -4.2
19,A40C U61A C76A,≤ -4.2
20,A39C A40G G50C C75A C85G,≤ -4.2
21,C38U C57A G74U G83C,≤ -4.2

row,Variant,polymerase ribozyme fitness (log ratio)
1,C38G C51U C95A C99G A106U C125A U134A,≤ -4.2
2,A40G C99G,-3.79
3,A40C G126A G128U,-4.14
4,A40C A47C A60C G71U A91C C93U,≤ -4.2
5,A40C U55G G84C C96U C103U C118U,-3.51
6,A39U A47G U139G U151G,≤ -4.2
7,A39C C105U G124A,-2.08
8,A41C A47C A60U,-2.01
9,A39U C99A,-3.7
10,C38U G42A C75G A91G C95U C105U A113U C118G,≤ -4.2
11,A40U U56A C75G,-3.97
12,A41C C76U G84U,-2.96
13,A40C A98G U146G G152C,≤ -4.2
14,C38U U53A U61A,-1.44
15,A41C C93U C123U,-1.59
16,C38U G42C A52U U61G G133U,≤ -4.2
17,A40U U56A C85G C114G,-3.79
18,A39C A41C G65A C96A C103A U111G,≤ -4.2
19,A39G G50A G81C U82C G92C G140A U151C G152C,≤ -4.2
20,C38U A40G,-2.26
21,C38U C149U A150U,-1.23

row,Variant,polymerase ribozyme fitness (log ratio)
1,C38U A52G G70U C85U G117U,-3.27
2,A41C A91G C118G,-3.64
3,C38U G58A G86A C93U C96A C131A,-2.97
4,A40C C85A U102G G143A,≤ -4.2
5,C38U C95G A120U G152A,-3.59
6,A39C G94A,-2.88
7,A40G C118U,-2.18
8,A40C C99U,0.519
9,A40C G84A G94A C131U U139A,-4.09
10,A40U G59C C132U U145G,-1.94
11,A39U U82A A106G,-1.88
12,A40U C85U,-0.107
13,A41C A52G G86U,-2.67
14,A41C C51U,-0.722
15,C38U C63U A73G C118U A150G,-2.88
16,A39U U61A A64C G86C,≤ -4.2
17,A40C C85G C87U C93U U148C,≤ -4.2
18,A39U U144C,-2.52
19,A39U C63U C75G C76A C87G C105U C129U G143C,≤ -4.2
20,A40G C54A G68A G92A,≤ -4.2
21,A39U C93U,-3.36
